According to the Human Domainome abundance scans (Beltran et al. 2025):
± gives the uncertainty stated by the source.

B1: Triacylglycerol hydrolase DDHD2, residues 389 to 447; numbered along this chain, O94830 (parent)
chain: TLEEDLKKLQLSEFFDIFEKEKVDKEALALCTDRDLQEIGIPLGPRKKILNYFSTRKNS

Variants of: B1
Experiment: abundance fitness (aPCA) (normalised: wild type 0, dead -1); higher = more abundant; growth selection in yeast, the domain comes from the species named
Details: Homo sapiens

Variant	abundance fitness
TLEEDLKKLQLSEFFDIFEKEKVDKEALALCTDRDLQEIGIPLGPRKKILNYFSTRKPS [N58P]	-0.199 ± 0.11
TLEEDLKKLQLSEFFDIFEKEKVDKEALALCTDRDLQEIGIPLGPRKHILNYFSTRKNS [K48H]	-0.213 ± 0.13
TLEEDLKKLQLSEFFGIFEKEKVDKEALALCTDRDLQEIGIPLGPRKKILNYFSTRKNS [D16G]	-0.088 ± 0.046
TLEEDLKKLQLSEFFNIFEKEKVDKEALALCTDRDLQEIGIPLGPRKKILNYFSTRKNS [D16N]	-0.025 ± 0.15
TLEEDLKKLQLSEFFVIFEKEKVDKEALALCTDRDLQEIGIPLGPRKKILNYFSTRKNS [D16V]	-0.096 ± 0.05
TLEEDLKKLALSEFFDIFEKEKVDKEALALCTDRDLQEIGIPLGPRKKILNYFSTRKNS [Q10A]	-0.22 ± 0.05
TLEEDLKKLQLSEFFDIFEKEKVDKEALALCTDRDLQEIGIPLGPRKKILNYFLTRKNS [S54L]	-0.306 ± 0.069
TLEEDLKKLQLSEFFDIFEKEKVDKEALALCTDRDLQEIGIPLGPRKKILNYFMTRKNS [S54M]	0.17 ± 0.08
TLEIDLKKLQLSEFFDIFEKEKVDKEALALCTDRDLQEIGIPLGPRKKILNYFSTRKNS [E4I]	-0.432 ± 0.12
TLEEDLKKLQLSEFKDIFEKEKVDKEALALCTDRDLQEIGIPLGPRKKILNYFSTRKNS [F15K]	0.068 ± 0.097
TLEEDLKKLQLSEFRDIFEKEKVDKEALALCTDRDLQEIGIPLGPRKKILNYFSTRKNS [F15R]	-0.077 ± 0.063
TLEEDLKKLQLSEFFDIFEKEKVDKEALALCTDRDLQEIFIPLGPRKKILNYFSTRKNS [G40F]	-0.865 ± 0.24
TLEEDLKKLQLSEFFDIFEKEKVDKEALALCTDRDLQEIGIYLGPRKKILNYFSTRKNS [P42Y]	-0.83 ± 0.19
TLEEDLKKLQLSEFFDIFEKEKVDKEALALCTDRDLQEIGIRLGPRKKILNYFSTRKNS [P42R]	-0.872 ± 0.082
TLEEDLKKLQLSEFFDIFEKEKVDKEALALCTDRDLQEIGIPLGPRKKILNNFSTRKNS [Y52N]	0.151 ± 0.12
TLEEDLKKLQLSEFFDIFEKEKVDKEALALCTDRDLQEIGIPLGPRKKILNHFSTRKNS [Y52H]	0.231 ± 0.14
TLEEDLKKLQLSEFFDIFEKEKVDKEALALCTDRDLQEIGIPLGRRKKILNYFSTRKNS [P45R]	-0.716 ± 0.09
TLEEDLKKLQLSEFFDIFEKEKVDKEALALCTDRDLQEIGIPLGGRKKILNYFSTRKNS [P45G]	-0.168 ± 0.074
TLEEDLKKLQLSEFFDIPEKEKVDKEALALCTDRDLQEIGIPLGPRKKILNYFSTRKNS [F18P]	-0.035 ± 0.094
TLEEDLKKLQLSEFFDISEKEKVDKEALALCTDRDLQEIGIPLGPRKKILNYFSTRKNS [F18S]	-0.445 ± 0.081
TLEEDLKKLQLSEFFDIYEKEKVDKEALALCTDRDLQEIGIPLGPRKKILNYFSTRKNS [F18Y]	-0.293 ± 0.12
TLEEDLKKLQLSEFFDIFEKEKVDKEALALCTDRDLQEIGIPLGPRKKIFNYFSTRKNS [L50F]	-0.008 ± 0.15
TLEEDLKKLQLSEFFDIFEKEKVDKEALNLCTDRDLQEIGIPLGPRKKILNYFSTRKNS [A29N]	0.142 ± 0.099

Variant	abundance fitness
TLEEDLKKLQLSEFFDIFEKEKVDKEALWLCTDRDLQEIGIPLGPRKKILNYFSTRKNS [A29W]	-0.399 ± 0.09
TLEEDLKKLQLSEFFDIFEKEKVDSEALALCTDRDLQEIGIPLGPRKKILNYFSTRKNS [K25S]	-0.088 ± 0.075
TLEEYLKKLQLSEFFDIFEKEKVDKEALALCTDRDLQEIGIPLGPRKKILNYFSTRKNS [D5Y]	-0.614 ± 0.12
TLEEDLKKLQLSEFFDIFEKEKVDKEALALCTDRDLQEIGIPLGPRKKILWYFSTRKNS [N51W]	-0.384 ± 0.094
TLEEDLKKLQLSEFFDIFEKEKVDKEALALCTDRDLQEIGIPLGPRKKILLYFSTRKNS [N51L]	-0.185 ± 0.07
TLEEDLKKLQLSEFFDIFMKEKVDKEALALCTDRDLQEIGIPLGPRKKILNYFSTRKNS [E19M]	0.016 ± 0.1
TLEEDLKKLQMSEFFDIFEKEKVDKEALALCTDRDLQEIGIPLGPRKKILNYFSTRKNS [L11M]	-0.125 ± 0.058
TLEEDLKKLQLSEFFDIFEKEKVDKEAVALCTDRDLQEIGIPLGPRKKILNYFSTRKNS [L28V]	0.073 ± 0.07
TLEEDLKKLQLSEFFDIFEKEKVDKEAHALCTDRDLQEIGIPLGPRKKILNYFSTRKNS [L28H]	-0.252 ± 0.14
TLEEDLKKLQLSEFFDIFEKEKVDKEALALCTDYDLQEIGIPLGPRKKILNYFSTRKNS [R34Y]	0.367 ± 0.093
TLEEDLKKLQLSEFFDIFEKEKVYKEALALCTDRDLQEIGIPLGPRKKILNYFSTRKNS [D24Y]	-0.627 ± 0.2
TLEEDLQKLQLSEFFDIFEKEKVDKEALALCTDRDLQEIGIPLGPRKKILNYFSTRKNS [K7Q]	0.083 ± 0.12
TLEEDLIKLQLSEFFDIFEKEKVDKEALALCTDRDLQEIGIPLGPRKKILNYFSTRKNS [K7I]	-0.741 ± 0.38
TLEEDLMKLQLSEFFDIFEKEKVDKEALALCTDRDLQEIGIPLGPRKKILNYFSTRKNS [K7M]	-0.424 ± 0.18
TLEEDLKKLQLSEFFDIFEKEKVDKQALALCTDRDLQEIGIPLGPRKKILNYFSTRKNS [E26Q]	-0.107 ± 0.1
TLEEDLKKLQLSEFFDIFEKEKVDKEALALCADRDLQEIGIPLGPRKKILNYFSTRKNS [T32A]	-0.226 ± 0.086
TLEEDLKKLQLSEFFDIFEKEKVDKEALALCTDRDLQEMGIPLGPRKKILNYFSTRKNS [I39M]	0.764 ± 0.072
TLEEDLKKLQLSEFFDIFEKEKVDKEALALCTDRDLQELGIPLGPRKKILNYFSTRKNS [I39L]	0.176 ± 0.064
TLEEDLKKLQLEEFFDIFEKEKVDKEALALCTDRDLQEIGIPLGPRKKILNYFSTRKNS [S12E]	0.016 ± 0.066
TLEEDLKKLQLSEFFDIFEKEKVDKEALALCTDRDLQEIGIPLMPRKKILNYFSTRKNS [G44M]	0.06 ± 0.069
TLEEDLKKLQLSQFFDIFEKEKVDKEALALCTDRDLQEIGIPLGPRKKILNYFSTRKNS [E13Q]	-0.215 ± 0.15
TLEEDLKKLQLSEFFDIFEKEKVDKEALALCTDRDLQEIGIPLGPRKKILNYFSTRKND [S59D]	0.23 ± 0.17
